Measurements published in article PMC5010959.
Several values for one entry are separate records, joined by “and”; a condition that tells them apart may be missing. Equal values may be shown once.

Key:
BoNT/A light chain (LCA) [1] = target: T1, BoNT/A light chain (LCA) (Clostridium botulinum type A, UniProt P0DPI1 2-448); test: SPR
BoNT/A light chain (LCA) [2] = target: T1, BoNT/A light chain (LCA)

T1 sequence (P0DPI1 2-448): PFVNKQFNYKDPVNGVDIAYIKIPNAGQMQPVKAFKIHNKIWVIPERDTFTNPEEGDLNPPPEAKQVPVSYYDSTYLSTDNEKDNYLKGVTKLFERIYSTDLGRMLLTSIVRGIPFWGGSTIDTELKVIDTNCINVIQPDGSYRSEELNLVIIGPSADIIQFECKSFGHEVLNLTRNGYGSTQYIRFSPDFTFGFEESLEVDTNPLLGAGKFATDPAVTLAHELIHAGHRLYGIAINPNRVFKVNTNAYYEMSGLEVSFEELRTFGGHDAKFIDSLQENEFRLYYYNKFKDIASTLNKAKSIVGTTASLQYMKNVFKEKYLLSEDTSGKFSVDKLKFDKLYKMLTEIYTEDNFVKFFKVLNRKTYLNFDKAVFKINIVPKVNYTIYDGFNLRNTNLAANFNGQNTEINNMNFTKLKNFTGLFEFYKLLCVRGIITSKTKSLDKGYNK

B1: TW3 2'-F modified (XNA)
RNA: GGGUACCCACUCAGGUACGUGGGAAUUGAGCGGGUCACACUAUAAGCACGAGCCUUAGACAGCUUUCUAGAAUUAAGCUUAGGC
modifications: 2'-fluoro pyrimidines (C and U)
Kd (BoNT/A light chain (LCA) [1]): 27.9 ± 4.3 nM | IC50 (BoNT/A light chain (LCA) [2]): 727 ± 12 nM | Ki (BoNT/A light chain (LCA) [2]): 463 nM and 849 nM

B2: TW3 unmodified (structured_RNA)
RNA: GGGUACCCACUCAGGUACGUGGGAAUUGAGCGGGUCACACUAUAAGCACGAGCCUUAGACAGCUUUCUAGAAUUAAGCUUAGGC
Kd (BoNT/A light chain (LCA) [1]): 59.1 ± 7.3 nM

B3: TW1 2'-F modified (XNA)
RNA: GGGUACCCACUCAGGUACGAUUGGUGCGAUAAACUAGACUCGUCAUGCGCAGUCUCCUACAGCUUUCUAGAAUUAAGCUUAGGC
modifications: 2'-fluoro pyrimidines (C and U)
Kd (BoNT/A light chain (LCA) [1]): 31.4 ± 4.4 nM | IC50 (BoNT/A light chain (LCA) [2]): 639 ± 13 nM | Ki (BoNT/A light chain (LCA) [2]): 433 nM and 720 nM

B4: TW1 unmodified (structured_RNA)
RNA: GGGUACCCACUCAGGUACGAUUGGUGCGAUAAACUAGACUCGUCAUGCGCAGUCUCCUACAGCUUUCUAGAAUUAAGCUUAGGC
Kd (BoNT/A light chain (LCA) [1]): 109 ± 9.9 nM
